Publication PMC6054930 (Frontiers in Immunology, 2018)

Biological target: T1, hPD-L1-Fc (human, UniProt Q9NZQ7 19-238)
T1 construct: human programmed death-ligand 1 (PD-L1, CD274, B7-H1); also called programmed death-ligand 1; CD274; source: bought: tebu-bio/BPS Bioscience, #71104
Test: ELISA; competitive: hPD-L1-Fc coated on the plate; test antibodies in presence of 1 µg/ml PD-1-Biotin or 0.5 µg/ml CD80-Biotin; detected with streptavidin-POD
Conditions: both partners purified

T1 sequence (Q9NZQ7 19-238): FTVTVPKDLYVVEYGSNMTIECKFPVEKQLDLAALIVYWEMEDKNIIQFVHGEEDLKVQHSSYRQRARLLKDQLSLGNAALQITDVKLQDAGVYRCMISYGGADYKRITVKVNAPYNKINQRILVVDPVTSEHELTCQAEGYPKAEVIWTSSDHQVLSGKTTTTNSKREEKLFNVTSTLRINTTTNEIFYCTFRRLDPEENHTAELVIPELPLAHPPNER

binding result: binds
B1: CD80-Biotin (ligand, human, UniProt P33681 35-242, looked up)
chain: VIHVTKEVKEVATLSCGHNVSVEELAQTRIYWQKEKKMVLTMMSGDMNIWPEYKNRTIFDITNNLSIVILALRPSDEGTYECVVLKYEKDAFKREHLAEVTLSVKADFPTPSISDFEIPTSNIRRIICSTSGGFPEPHLSWLENGEELNAINTTVSQDPETELYAVSSKLDFNMTTNHSFMCLIKYGHLRVNQTFNWNTTKQEHFPDN
modifications: biotin
notes: The vendor's product may carry an Fc part; also called B7-1; soluble CD80; source: bought: tebu-bio/BPS Bioscience, #71114
